Molecular target: T1, natural Can f 1 (Canis lupus familiaris (dog))
T1 construct: Can f 1, major dog allergen, lipocalin, Canis familiaris; isolated from the natural source; model in the complex with 1J11 Fab starts at Ala5; numbers count on: the mature protein; Natural preparation; also called nCan f 1
Experiment: SPR; localized surface plasmon resonance (LSPR) on an OpenSPR (Nicoya Lifesciences)
Details: both partners purified

T1 sequence (chain, as listed by the source): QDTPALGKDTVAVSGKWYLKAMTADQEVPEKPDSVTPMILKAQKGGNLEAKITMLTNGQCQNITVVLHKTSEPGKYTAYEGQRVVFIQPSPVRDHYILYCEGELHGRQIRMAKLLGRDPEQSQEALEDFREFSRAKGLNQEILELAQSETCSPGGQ

Row | Kd [nM] | Binder
1 | 0.2 ± 0.1 | human IgE monoclonal antibody 1J11 (antibody, V domains shown, variable region as the heavy chain of m4 (PDB 8VQF); as the light chain of m4 (PDB 8VQF); Human IgE; details of isolation, production and purification are in Supplementary material; also called hIgE mAb 1J11; IgE mAb 1J11; source: B cell hybridomas from allergic subjects; copies: 2 + 2) VH: QVQLVESGGGVVQPGSSLRLSCAVSGFTVRSYGMHWVRQAPGKGLEWVALILFDGTTKHYADSVKGRFTISRDNSKDTLYLQMTSLGAEDTAMYYCVRDFNQFVKRFVDGPAFDLWGQGTRVTVSS VL: SYELTQPPSVSVSPGQTANITCSGDKLGDKFTSWYQQRPGQSPVLVIYQDIERPSGIPERFSGSNSGNTATLTISGTQALDEADYYCQAWDTSTVVFGGGTRLTVL
2 | 3.6 ± 1.3 | human IgE monoclonal antibody 12F3 (antibody, V domains shown, variable region as the heavy chain of m5 (PDB 9NPI); as the light chain of m5 (PDB 9NPI); Human IgE; details of isolation, production and purification are in Supplementary material; also called hIgE mAb 12F3; IgE mAb 12F3; source: B cell hybridomas from allergic subjects; copies: 2 + 2) VH: QVQLVQSGAEVQKPGSSVKVSCKASGGTFSRYPLIWVRQTPGQGLEWMGGIFPVIGRTNYAEKFQGRVTITADESTSTAYMELNSLTSEDTAVYYCARLDTYEILGYGTDVWGQGTTVTVSS VL: EIVLTQSPATLSLSPGERATLSCRASESVSSSVAWYQQKFGQAPRLLIYDASNRATGIPARFSGSGSGTDFTLTISSLEPEDFAVYYCQLRSNWPPLTFGGGTKVQIK

— article PMC12363406, “Human IgE monoclonal antibodies define two unusual epitopes trapping dog allergen Can f 1 in different conformations” (Protein Science : A Publication of the Protein Society, 2025)
